# Ends that are not written are not given here.
# Target: PAD4 (Homo sapiens, UniProt Q9UM07)
# Test: Conversion (R to Cit) of substrate peptides by PAD4, mass spectrometry
# Type: biochemical
# Settings: Table 4, 13-mer peptides, PAD4
# Text: From previous studies it was known that D-S-Q-F-A-F-R-G-A-S-A-S-D (designated here as L1: SEQ ID NO: 11) is a substrate for PAD2 and PAD 4. To obtain better substrates, and subsequently powerful inhibitors, we intended to identify structural elements that improve substrate properties. A set of 152 individual analog peptides was generated, each differing from L1 by one amino acid at one of the positions −4 to −1 or 1 to 4.
# In Table 3 the conversion of each analog (R to Cit conversion) is depicted. Values of the analogs relate to the conversion of the analog compared to the conversion of L1 under standard conditions (100 means a conversion equal to L1, 50 means conversion of 50% of that of L1, 175 means conversion of 175% of that of L1). Numbers above 100 thus relate to amino acid substitutions that improve substrate properties.
# Peptides of table 4 are represented by the following sequences SEQ ID NO: 22-31 and 33-46. Control peptide are represented by the following sequences SEQ ID NO: 11 as control L1 and SEQ ID NO: 32 as control L2. Unfortunately, a substantial number of designed peptides were too polar to be analyzed on our LC-MS system (indicated in Table 4 as n.t., not trapped on the column). We therefore also generated and tested these peptides containing two additional N-terminal F-residues to increase hydrophobicity. In this form peptides were trapped on the column and could be analyzed (see Table 5).
# Based on the above results we designed 20 peptides containing multiple amino acids that improve substrate properties (see Table 7). The indicated peptides were synthesized and tested in order to identify the best substrate from this group. Here we used a test system with less enzyme (3 times less) compared to the experiments described above.
# Conversion of arginine into citrulline in the substrate peptides by PAD2 or PAD4 using mass spectrometry was performed as follows. A candidate substrate peptide was incubated with a PAD as indicated for several hours at 37° C. The reaction was quenched by the addition with acetic acid. A sample was analysed on a Qtof mass spectrometer (Micromass, UK) and the mass spectrum was compared with that of the same peptide not treated with PAD. Normally, 2^+- and 3^+-ions are detected. The conversion (ΔM=0.98 Da) was calculated on the 2^+- and 3^+-ions individually, and subsequently averaged taking into account the relative peak height of the 2^+- and 3^+-signals (see FIG. 5).
# PAD4, sequence (Q9UM07 whole entry): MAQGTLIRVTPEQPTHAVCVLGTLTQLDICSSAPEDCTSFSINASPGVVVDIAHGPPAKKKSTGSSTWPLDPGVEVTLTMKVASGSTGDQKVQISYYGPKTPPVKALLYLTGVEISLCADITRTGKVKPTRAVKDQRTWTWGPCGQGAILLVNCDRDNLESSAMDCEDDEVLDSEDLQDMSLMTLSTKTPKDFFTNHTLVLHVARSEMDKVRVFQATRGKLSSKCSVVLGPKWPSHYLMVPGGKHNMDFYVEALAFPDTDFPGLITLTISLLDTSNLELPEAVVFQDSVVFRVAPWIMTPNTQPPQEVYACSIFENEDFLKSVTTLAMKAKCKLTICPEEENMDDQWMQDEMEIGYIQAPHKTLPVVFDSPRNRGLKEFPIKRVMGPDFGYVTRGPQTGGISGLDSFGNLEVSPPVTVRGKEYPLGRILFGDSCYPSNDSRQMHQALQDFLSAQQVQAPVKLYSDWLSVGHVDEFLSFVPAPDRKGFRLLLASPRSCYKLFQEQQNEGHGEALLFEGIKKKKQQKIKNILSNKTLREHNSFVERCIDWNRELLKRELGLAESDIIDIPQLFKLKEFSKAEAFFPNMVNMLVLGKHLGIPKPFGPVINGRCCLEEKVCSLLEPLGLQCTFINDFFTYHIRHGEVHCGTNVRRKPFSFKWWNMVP
row,Substance,Conversion (%)
1,D-S-H-H-F-H-R-E-Y-I-F-S-D (DSHHFHREYIFSD; not fully specified (C-terminus); printed as D-S-H-H-F-H-R-E-Y-I-F-S-D) [Peptide 0608-38],90
2,D-S-H-H-L-S-R-D-F-M-Y-S-D (DSHHLSRDFMYSD; not fully specified (C-terminus); printed as D-S-H-H-L-S-R-D-F-M-Y-S-D) [Peptide 0608-39],95
3,D-S-H-H-W-D-R-E-W-F-W-S-D (DSHHWDREWFWSD; not fully specified (C-terminus); printed as D-S-H-H-W-D-R-E-W-F-W-S-D) [Peptide 0608-40],100
4,D-S-H-K-L-D-R-E-Y-M-F-S-D (DSHKLDREYMFSD; not fully specified (C-terminus); printed as D-S-H-K-L-D-R-E-Y-M-F-S-D) [Peptide 0608-34],90
5,D-S-H-K-L-H-R-E-W-M-W-S-D (DSHKLHREWMWSD; not fully specified (C-terminus); printed as D-S-H-K-L-H-R-E-W-M-W-S-D) [Peptide 0608-44],95
6,D-S-K-H-K-D-R-E-Y-V-F-S-D (DSKHKDREYVFSD; not fully specified (C-terminus); printed as D-S-K-H-K-D-R-E-Y-V-F-S-D) [Peptide 0608-22],90
7,D-S-K-K-W-S-R-E-Y-F-F-S-D (DSKKWSREYFFSD; not fully specified (C-terminus); printed as D-S-K-K-W-S-R-E-Y-F-F-S-D) [Peptide 0608-30],90

# Same assay, conditions: Table 5, peptides with two additional N-terminal F-residues, PAD4
row,Substance,Conversion (%)
1,F-F-D-S-H-H-K-D-R-D-H-V-E-S-D (FFDSHHKDRDHVESD) [Peptide 0612-39],100
2,F-F-D-S-H-H-L-S-R-D-F-M-Y-S-D (FFDSHHLSRDFMYSD) [Peptide 0612-41],98
3,F-F-D-S-H-H-W-D-R-E-W-F-W-S-D (FFDSHHWDREWFWSD) [Peptide 0612-42],100
4,F-F-D-S-H-K-H-H-R-D-H-L-E-S-D (FFDSHKHHRDHLESD) [Peptide 0612-43],100
5,F-F-D-S-H-K-L-D-R-E-Y-M-F-S-D (FFDSHKLDREYMFSD) [Peptide 0612-36],100

# Same assay, conditions: Table 7, PAD4, test system with 3 times less enzyme
row,Substance,Conversion
1,D-S-H-K-F-D-R-D-F-L-Y-S-D (DSHKFDRDFLYSD; not fully specified (C-terminus); printed as D-S-H-K-F-D-R-D-F-L-Y-S-D) [Peptide 0708-28],53
2,D-S-K-K-F-D-R-D-F-L-F-S-D (DSKKFDRDFLFSD; not fully specified (C-terminus); printed as D-S-K-K-F-D-R-D-F-L-F-S-D) [Peptide 0708-27],51
3,D-S-K-K-H-D-R-D-H-L-F-S-D (DSKKHDRDHLFSD; not fully specified (C-terminus); printed as D-S-K-K-H-D-R-D-H-L-F-S-D) [Peptide 0708-21],53
4,D-S-K-K-H-D-R-D-K-L-F-S-D (DSKKHDRDKLFSD; not fully specified (C-terminus); printed as D-S-K-K-H-D-R-D-K-L-F-S-D) [Peptide 0708-24],35
5,D-S-K-W-F-D-R-D-H-L-Y-S-D (DSKWFDRDHLYSD; not fully specified (C-terminus); printed as D-S-K-W-F-D-R-D-H-L-Y-S-D) [Peptide 0708-16],70
6,D-S-N-K-H-H-R-D-H-L-Y-S-D (DSNKHHRDHLYSD) [Peptide 0708-17],38
7,D-S-N-W-H-H-R-D-H-L-Y-S-D (DSNWHHRDHLYSD) [Peptide 0708-19],45
8,D-S-W-W-H-K-R-D-K-L-Y-S-D (DSWWHKRDKLYSD) [Peptide 0708-23],18

# Reference: patent publication US8404647B2, “Peptidylarginine deiminase (PAD) inhibitors” (Chiralix B.V., priority 2008, dated 2013)
